{"source": "paper PMC12102759", "about": "(2025)", "parents": {"B1": {"name": "CBL peptide 540-555 (E3 ubiquitin-protein ligase CBL), 16-mer library wild type / YES SH3 (YES1 SH3 domain, residues 90-152) (parent complex)", "chain 1": "RDLPPPPPPDRPYSVG", "chain 2": "not shown"}, "B2": {"name": "PIP5K1C peptide 642-657 (Phosphatidylinositol 4-phosphate 5-kinase type-1 gamma), 16-mer library wild type / TLN1 PTB (TLN1 Phosphotyrosine-binding (PTB) domain, residues 309-401) (parent complex)", "chain 1": "TDERSWVYSPLHYSAQ", "chain 2": "GVSFFLVKEKMKGKNKLVPRLLGITKECVMRVDEKTKEVIQEWNLTNIKRWAASPKSFTLDFGDYQDGYYSVQTTEGEQIAQLIAGYIDIILK"}}}
{"variants_of": "B1", "experiment": "proteomic peptide phage display deep mutational scan (ProP-PD DMS): M13 P8 16-mer library selected against immobilised GST-tagged bait for four days (rounds), NGS of the eluted pools per day and pseudo-replica; bait immobilised on MaxiSorp plates (10 µg), library pre-cleared on GST, 2 h binding at 4 °C, five washes; one round per day, days 1-4; value from days 2 and 3"}
{"variant": "chain 1 P4M", "screen value": "0.000259 average fractional NGS count over selection days 2 and 3 (reads of this peptide / all reads for the bait, averaged over …"}
{"variant": "chain 1 P4E", "screen value": "0.000136 average fractional NGS count over selection days 2 and 3 (reads of this peptide / all reads for the bait, averaged over …"}
{"variant": "chain 1 P4L", "screen value": "0.000253 average fractional NGS count over selection days 2 and 3 (reads of this peptide / all reads for the bait, averaged over …"}
{"variants_of": "B2", "experiment": "proteomic peptide phage display deep mutational scan (ProP-PD DMS): M13 P8 16-mer library selected against immobilised GST-tagged bait for four days (rounds), NGS of the eluted pools per day and pseudo-replica; bait immobilised on MaxiSorp plates (10 µg), library pre-cleared on GST, 2 h binding at 4 °C, five washes; one round per day, days 1-4; value from days 2 and 3"}
{"variant": "chain 1 S9P", "screen value": "0.000206 average fractional NGS count over selection days 2 and 3 (reads of this peptide / all reads for the bait, averaged over …"}
{"variant": "chain 1 S14W", "screen value": "0.00882 average fractional NGS count over selection days 2 and 3 (reads of this peptide / all reads for the bait, averaged over …"}
{"variant": "chain 1 S14G", "screen value": "0.000766 average fractional NGS count over selection days 2 and 3 (reads of this peptide / all reads for the bait, averaged over …"}
{"variant": "chain 1 S14M", "screen value": "0.00342 average fractional NGS count over selection days 2 and 3 (reads of this peptide / all reads for the bait, averaged over …"}
{"variant": "chain 1 S14H", "screen value": "0.00391 average fractional NGS count over selection days 2 and 3 (reads of this peptide / all reads for the bait, averaged over …"}
{"variant": "chain 1 S14T", "screen value": "0.012 average fractional NGS count over selection days 2 and 3 (reads of this peptide / all reads for the bait, averaged over …"}
{"variant": "chain 1 S14F", "screen value": "0.00254 average fractional NGS count over selection days 2 and 3 (reads of this peptide / all reads for the bait, averaged over …"}
{"variant": "chain 1 S14E", "screen value": "0.00034 average fractional NGS count over selection days 2 and 3 (reads of this peptide / all reads for the bait, averaged over …"}
{"variant": "chain 1 S5L", "screen value": "0.00637 average fractional NGS count over selection days 2 and 3 (reads of this peptide / all reads for the bait, averaged over …"}
{"variant": "chain 1 S5H", "screen value": "0.00161 average fractional NGS count over selection days 2 and 3 (reads of this peptide / all reads for the bait, averaged over …"}
{"variant": "chain 1 S5I", "screen value": "0.00725 average fractional NGS count over selection days 2 and 3 (reads of this peptide / all reads for the bait, averaged over …"}
{"variant": "chain 1 S5K", "screen value": "0.00079 average fractional NGS count over selection days 2 and 3 (reads of this peptide / all reads for the bait, averaged over …"}
{"variant": "chain 1 S5R", "screen value": "0.00066 average fractional NGS count over selection days 2 and 3 (reads of this peptide / all reads for the bait, averaged over …"}
{"variant": "chain 1 S5Q", "screen value": "0.000811 average fractional NGS count over selection days 2 and 3 (reads of this peptide / all reads for the bait, averaged over …"}
{"variant": "chain 1 S5N", "screen value": "0.000275 average fractional NGS count over selection days 2 and 3 (reads of this peptide / all reads for the bait, averaged over …"}
{"variant": "chain 1 S5G", "screen value": "0.000211 average fractional NGS count over selection days 2 and 3 (reads of this peptide / all reads for the bait, averaged over …"}
{"variant": "chain 1 S5P", "screen value": "0.00403 average fractional NGS count over selection days 2 and 3 (reads of this peptide / all reads for the bait, averaged over …"}
{"variant": "chain 1 S5D", "screen value": "0.00879 average fractional NGS count over selection days 2 and 3 (reads of this peptide / all reads for the bait, averaged over …"}
{"variant": "chain 1 T1W", "screen value": "0.00109 average fractional NGS count over selection days 2 and 3 (reads of this peptide / all reads for the bait, averaged over …"}
{"variant": "chain 1 T1I", "screen value": "0.000851 average fractional NGS count over selection days 2 and 3 (reads of this peptide / all reads for the bait, averaged over …"}
{"variant": "chain 1 T1F", "screen value": "0.0018 average fractional NGS count over selection days 2 and 3 (reads of this peptide / all reads for the bait, averaged over …"}
{"variant": "chain 1 T1D", "screen value": "0.00201 average fractional NGS count over selection days 2 and 3 (reads of this peptide / all reads for the bait, averaged over …"}
{"variant": "chain 1 P10H", "screen value": "0.00282 average fractional NGS count over selection days 2 and 3 (reads of this peptide / all reads for the bait, averaged over …"}
{"variant": "chain 1 P10M", "screen value": "0.00123 average fractional NGS count over selection days 2 and 3 (reads of this peptide / all reads for the bait, averaged over …"}
{"variant": "chain 1 Y8I", "screen value": "0.00147 average fractional NGS count over selection days 2 and 3 (reads of this peptide / all reads for the bait, averaged over …"}
{"variant": "chain 1 Y8H", "screen value": "0.0119 average fractional NGS count over selection days 2 and 3 (reads of this peptide / all reads for the bait, averaged over …"}
{"variant": "chain 1 Y8E", "screen value": "0.002 average fractional NGS count over selection days 2 and 3 (reads of this peptide / all reads for the bait, averaged over …"}
{"variant": "chain 1 Y8A", "screen value": "0.00167 average fractional NGS count over selection days 2 and 3 (reads of this peptide / all reads for the bait, averaged over …"}
{"variant": "chain 1 D2F", "screen value": "0.00154 average fractional NGS count over selection days 2 and 3 (reads of this peptide / all reads for the bait, averaged over …"}
{"variant": "chain 1 D2G", "screen value": "0.00241 average fractional NGS count over selection days 2 and 3 (reads of this peptide / all reads for the bait, averaged over …"}
{"variant": "chain 1 D2H", "screen value": "0.0024 average fractional NGS count over selection days 2 and 3 (reads of this peptide / all reads for the bait, averaged over …"}
{"variant": "chain 1 D2L", "screen value": "0.0016 average fractional NGS count over selection days 2 and 3 (reads of this peptide / all reads for the bait, averaged over …"}
{"variant": "chain 1 D2A", "screen value": "0.0142 average fractional NGS count over selection days 2 and 3 (reads of this peptide / all reads for the bait, averaged over …"}
{"variant": "chain 1 D2M", "screen value": "0.000501 average fractional NGS count over selection days 2 and 3 (reads of this peptide / all reads for the bait, averaged over …"}
{"variant": "chain 1 D2R", "screen value": "0.00137 average fractional NGS count over selection days 2 and 3 (reads of this peptide / all reads for the bait, averaged over …"}
{"variant": "chain 1 D2E", "screen value": "0.00176 average fractional NGS count over selection days 2 and 3 (reads of this peptide / all reads for the bait, averaged over …"}
{"variant": "chain 1 H12T", "screen value": "0.00303 average fractional NGS count over selection days 2 and 3 (reads of this peptide / all reads for the bait, averaged over …"}
{"variant": "chain 1 H12P", "screen value": "0.00102 average fractional NGS count over selection days 2 and 3 (reads of this peptide / all reads for the bait, averaged over …"}
{"variant": "chain 1 H12W", "screen value": "0.000302 average fractional NGS count over selection days 2 and 3 (reads of this peptide / all reads for the bait, averaged over …"}
{"variant": "chain 1 H12A", "screen value": "0.00137 average fractional NGS count over selection days 2 and 3 (reads of this peptide / all reads for the bait, averaged over …"}
{"variant": "chain 1 H12K", "screen value": "0.000275 average fractional NGS count over selection days 2 and 3 (reads of this peptide / all reads for the bait, averaged over …"}
{"variant": "chain 1 H12Q", "screen value": "0.0044 average fractional NGS count over selection days 2 and 3 (reads of this peptide / all reads for the bait, averaged over …"}
{"variant": "chain 1 H12N", "screen value": "0.00503 average fractional NGS count over selection days 2 and 3 (reads of this peptide / all reads for the bait, averaged over …"}
{"variant": "chain 1 H12G", "screen value": "0.00249 average fractional NGS count over selection days 2 and 3 (reads of this peptide / all reads for the bait, averaged over …"}
{"variant": "chain 1 V7W", "screen value": "0.00263 average fractional NGS count over selection days 2 and 3 (reads of this peptide / all reads for the bait, averaged over …"}
{"variant": "chain 1 V7A", "screen value": "0.0345 average fractional NGS count over selection days 2 and 3 (reads of this peptide / all reads for the bait, averaged over …"}
{"variant": "chain 1 V7H", "screen value": "0.000523 average fractional NGS count over selection days 2 and 3 (reads of this peptide / all reads for the bait, averaged over …"}
{"variant": "chain 1 V7G", "screen value": "0.000623 average fractional NGS count over selection days 2 and 3 (reads of this peptide / all reads for the bait, averaged over …"}
{"variant": "chain 1 V7E", "screen value": "0.00195 average fractional NGS count over selection days 2 and 3 (reads of this peptide / all reads for the bait, averaged over …"}
{"variant": "chain 1 V7F", "screen value": "0.00058 average fractional NGS count over selection days 2 and 3 (reads of this peptide / all reads for the bait, averaged over …"}
{"variant": "chain 1 L11E", "screen value": "0.000382 average fractional NGS count over selection days 2 and 3 (reads of this peptide / all reads for the bait, averaged over …"}
{"variant": "chain 1 L11R", "screen value": "0.00065 average fractional NGS count over selection days 2 and 3 (reads of this peptide / all reads for the bait, averaged over …"}
{"variant": "chain 1 L11Y", "screen value": "0.000186 average fractional NGS count over selection days 2 and 3 (reads of this peptide / all reads for the bait, averaged over …"}
{"variant": "chain 1 L11I", "screen value": "0.00188 average fractional NGS count over selection days 2 and 3 (reads of this peptide / all reads for the bait, averaged over …"}
{"variant": "chain 1 R4G", "screen value": "0.00304 average fractional NGS count over selection days 2 and 3 (reads of this peptide / all reads for the bait, averaged over …"}
{"variant": "chain 1 R4Y", "screen value": "0.00355 average fractional NGS count over selection days 2 and 3 (reads of this peptide / all reads for the bait, averaged over …"}
{"variant": "chain 1 R4D", "screen value": "0.0132 average fractional NGS count over selection days 2 and 3 (reads of this peptide / all reads for the bait, averaged over …"}
{"variant": "chain 1 R4M", "screen value": "0.00101 average fractional NGS count over selection days 2 and 3 (reads of this peptide / all reads for the bait, averaged over …"}
{"variant": "chain 1 E3W", "screen value": "0.0075 average fractional NGS count over selection days 2 and 3 (reads of this peptide / all reads for the bait, averaged over …"}
{"variant": "chain 1 E3V", "screen value": "0.000642 average fractional NGS count over selection days 2 and 3 (reads of this peptide / all reads for the bait, averaged over …"}
{"variant": "chain 1 E3H", "screen value": "0.00041 average fractional NGS count over selection days 2 and 3 (reads of this peptide / all reads for the bait, averaged over …"}
{"variant": "chain 1 W6F", "screen value": "0.000288 average fractional NGS count over selection days 2 and 3 (reads of this peptide / all reads for the bait, averaged over …"}
{"variant": "chain 1 W6N", "screen value": "0.00011 average fractional NGS count over selection days 2 and 3 (reads of this peptide / all reads for the bait, averaged over …"}
{"variant": "chain 1 W6V", "screen value": "0.00015 average fractional NGS count over selection days 2 and 3 (reads of this peptide / all reads for the bait, averaged over …"}
{"variant": "chain 1 A15S", "screen value": "0.001 average fractional NGS count over selection days 2 and 3 (reads of this peptide / all reads for the bait, averaged over …"}
{"variant": "chain 1 A15I", "screen value": "0.000328 average fractional NGS count over selection days 2 and 3 (reads of this peptide / all reads for the bait, averaged over …"}
{"variant": "chain 1 Y13E", "screen value": "0.000568 average fractional NGS count over selection days 2 and 3 (reads of this peptide / all reads for the bait, averaged over …"}
{"variant": "chain 1 Y13A", "screen value": "0.000758 average fractional NGS count over selection days 2 and 3 (reads of this peptide / all reads for the bait, averaged over …"}
{"variant": "chain 1 Y13M", "screen value": "0.00125 average fractional NGS count over selection days 2 and 3 (reads of this peptide / all reads for the bait, averaged over …"}
{"variant": "chain 1 Y13F", "screen value": "0.0029 average fractional NGS count over selection days 2 and 3 (reads of this peptide / all reads for the bait, averaged over …"}
{"variant": "chain 1 Y13G", "screen value": "0.000568 average fractional NGS count over selection days 2 and 3 (reads of this peptide / all reads for the bait, averaged over …"}
{"variant": "chain 1 Y13D", "screen value": "0.0137 average fractional NGS count over selection days 2 and 3 (reads of this peptide / all reads for the bait, averaged over …"}
